Consider 20 sequences from a protein production outcome set (Wang et al. 2014).

This data set can be described thus: label from the status in PepcDB records.
Regarding “MANVAIIGTEKSGRTSLAANLGKKGTSSDITMYNNDKEGRNMVFVDAHSYPKTLKSLITALNISDIAVLCIPPQGLDAHTGECIIALDLLGFKHGIIALTRSDSTHMHAIDELKAKLKVITSGTVLQDWECISLNTNKSAKNPFEGVDELKARINEVAEKIEAENAELNSLPARIFIDHAFNVTGKGCVVLGVVKQGISKDKDKTKIFPLDRDIEIRSIQSHDVDIDSAPAGTRVGMRLKNVQAKDIERGFIISDKEIVTTDYTLECTVSKFTKKIEPASVLHLFVGLQSEPVRVEKILVDGNEVEEAKPGSTCVLELSGNKKLAYSKQDRFLLANLDLTQRFAAYGFSK”, the protein production result was “not failed”.

For “MTLISRILGLVRDVVIASLLGAGAMSDVFLFANRIPNFLRRLFAEGAFSKAFVPVLAEYNADNDLDKTREFIAKVSGTLGLLVTVVTLVAMLISPIIAALFGTGWFIDWFNDGPDAQKFTQASLLLKITFPYLWFITFIALSGAVLNTIGKFGVMAFSPVLLNVAMISMALFGADYFEQPDIALAWGIFLGGLLQFLFQIPFMIKERLLVKPKWAWKDEGVTKVRRLMIPALFGVSVTQINLLLNQVIASFLVTGSITWLYYSDRLIEFPLGLFGIAISTVVLPNLSRITKKKALNEEQRAIAFKQTLDWGVRMVVALGIPAMVGIAILAQPLIMTIFMRGKFVLADVIATSHALWIMCLGLNSYMLISVLANGFYARQNTKTPVKIGIIATIANICFGVLAIPFGYLGLAMASALSAAVNASLLYYNLVKEQAYCLSKKTVIFILKVAISACAMGVLVSYFSPTLTDWYAMKMWLKVHWLVWLISLAAISYFAVLMVLGIRKQDFRA”, the protein production result is listed as “failed”.

Take “MLKKEYLKNPYLVLFAMIILAYVFSVLCRFYWIWWASEFNEYFFNNQLMIISNDGYAFAEGARDMIAGFHQPNDLSYYGSSLSTLTYWLYKITPFSFESIILYMSTFLSSLVVIPIILLANEYKRPLMGFVAALLASVANSYYNRTMSGYYDTDMLVIVLPMFILFFMVRMILKKDFFSLIALPLFIGIYLWWYPSSYTLNVALIGLFLIYTLIFHRKEKIFYIAVILSSLTLSNIAWFYQSAIIVILFALFALEQKRLNFMIIGILGSATLIFLILSGGVDPILYQLKFYIFRNDESANLTQGFMYFNVNQTIQEVENVDFSEFMRRISGSEIVFLFSLFGFVWLLRKHKSMIMALPILVLGFLALKGGLRFTIYSVPVMALGFGFLLSEFKAILVKKYSQLTSNVCIVFATILTLAPVFIHIYNYKAPTVFSQNEASLLNQLKNIANREDYVVTWWDYGYPVRYYSDVKTLVDGGKHLGKDNFFPSFALSKDEQAAANMARLSVEYTEKSFYAPQNDILKSDILQAMMKDYNQSNVDLFLASLSKPDFKIDTPKTRDIYLYMPARMSLIFSTVASFSFINLDTGVLDKPFTFSTAYPLDVKNGEIYLSNGVVLSDDFRSFKIGDNVVSVNSIVEINSIKQGEYKITPIDDKAQFYIFYLKDSAIPYAQFILMDKTMFNSAYVQMFFLGNYDKNLFDLVINSRDAKVFKLKI”: the protein production result is “failed”.

As for “MKKSILFTFVLCLLSQWSVAQAPKWVEKAKRSVFSIVTYDKDDKIQNTGNGFFVTEDGVALSDYSLFKGAQRAVIINSEGEKMPVECILGANDMYDIIKFRVGITVKKVPALQVAALAPAVGAEVYLLPYSTQKGGNVTRGKVKKVDNIGGDKYHYYTLDMVLKDKMVSCPVTTADGKVFGVAQKSSGQDTASISYAAGAAFAMSQNISALALSDPALNAIGIKKGLPEDEDQALVYLFIASTQSTPEAYAIALDDFIKTFPNSADGYLRRAGNYVFADKDENHMDKAAADLEHALKVAQKKDDTYYNIAKLIYNYQLSKPETVYKDWTYDQALENVRSAIAIQSLPVYQQLEGDILFAKQDYAGAFASYDKVNQTELASPASFFSAAKAKELSKAAPEEVIALLDSCIARCQTPITSDLAPYLLERAQMYMNVEKYRLALADYDAYFNAVKGSVNDLFYYYREQAAFKAKQFQRALDDIAKAIELNPEDLTYRAEQAVVNLRVGRYEEAEKVLKDALAIDPKYAEGYRLLGICQIQLKQEKAACASFAKAKELGDPNVDELIKKHCK”, the protein production result was “failed”.

For the sequence “MKSVIFTEEKNLQRQNPLQKSEQQRRNFEMPSPPTTTSLSVTQTINGSHSFTIKGYSLAKGIGIGKHIASDTFTVGGYQWAIYFYPDGKNPEDNSAYVSVFIALASDGTDVRALFELSLLDQSGKGKHKVHSHFDRALESGPYTLKYRGSMWGYKRFFRRLMLETSDFLKDDCLKINCTVGVVVSEIDCPRLHSIHVPASDIGSHFGMLLENEDGSDITFNVSGEKFRAHRLVLAARSPVFESEFLDVTGEEDRDIEVTDMEPKVFKALLHYIYKDALIEDAESSSSSGSSVGPSASDTLAAKLLGAADKYKLPRLSLMCESVLCKDISVDSVANILALADRYNASALKSVCLKFAAENLIAVMRSDGFDYLREHCPSLQSELLKTVAGCEEELSGGGGKTRSVWGQFSDGGAETNGRQAQTWGDINGGAERSQSVWVEVVNANGSGRNNNDNNNSDDPMAELED”, the protein production result is reported as “failed”.

“MAGFMKNAMSYLGMSDVAEGEDDFEDDVDTGETSFDSDHSVTPMPSSSASASTPSAPREQSNPFQGGRVSRITTIHPKTYDDAQMVGRAIRDGIPVVLNLTGVAEAVAYRIVDFSAGVVFGVRGSIERVTPRVFLLSPAQVNIKVEEPEDKGPAHDLFAD”: the protein production result was “failed”.

With “MSAAPGLLHQELSCPLCLQLFDAPVTAECGHSFCRACLGRVAGEPAADGTVLCPCCQAPTRPQALSTNLQLARLVEGLAQVPQGHCEEHLDPLSIYCEQDRALVCGVCASLGSHRGHRLLPAAEAHARLKTQLPQQKLQLQEACMRKEKSVAVLEHQLVEVEETVRQFRGAVGEQLGKMRVFLAALEGSLDCEAERVRGEAGVALRRELGSLNSYLEQLRQMEKVLEEVADKPQTEFLMKYCLVTSRLQKILAESPPPARLDIQLPIISDDFKFQVWRKMFRALMPALEELTFDPSSAHPSLVVSSSGRRVECSEQKAPPAGEDPRQFDKAVAVVAHQQLSEGEHYWEVDVGDKPRWALGVIAAEAPRRGRLHAVPSQGLWLLGLREGKILEAHVEAKEPRALRSPERRPTRIGLYLSFGDGVLSFYDASDADALVPLFAFHERLPRPVYPFFDVCWHDKGKNAQPLLLVGPEGAEA”, the protein production entry is “failed”.

“MGNLPPHYGGSVNLLIAALGVLGVASSGPLIAGTLGATSVTALAIAFWRNAIGAVVMAGPVVIREPKAFGRITRREFGWSAVAAVALAFHFACFITALQLTSVAAATALVCLQSGWIAVFQLFRGTRHRWPVLVGLGIAFGGVVAITGFDMGSSPEALLGDLLALAGGALAGLYTLAGGKARQSMGTGTYTTLCYGMCAAIVAVMALFSGQPLAGFDAGGWLGIIAITVCAQLVGHTAFNHLLATMSPLLVSMIILLEIPGAAILAAIFLNETLPAGTYAGLALILVGLAVVVSGQRRGRPVADRREAELGAD”: the protein production result is given as “failed”.

“MADQAPRPAREFVVEADGGSRGNPGPAGYGAVVLDPVTGEALVEAAEYLGVVTNNVAEYRGLLAGLRAAAELDPDATVHVRMDSKLVVEQMSGRWKIKHPDMKPLAAEAARVFPPGRVTYEWIPRASNKHADRLANEAMDAGARGEAWSPSDSTAELDAAAADRAAPAGRTAGSRRTGAASAVAPAGTEGGDGGEPAPDGGGAAAGEPLARAGRDRVDAASLGAGTRAATSTGASATGTSGTGASATGTSGTGASATGAPGLGVAAETSGEADVRAAKVVASPGWGPPDMGAPATFVLLRHGETPLTPQKRFSGSGGSDPSLSPVGREQAERVAASLARRGTIEAVVASPLARTRETAGIVAARLGLEVAIEEGLRETDFGAWEGLTFGEVRERHPADLDAWLASPDAEPTGGGESFAATGTRIAATRDRLVAAYAGRTVLLVSHVTPIKTFVRLALGAPPESLFRMELSAASLSAVAYYADGGASVRLFNETSHLR”: the protein production entry is listed as “failed”.

“MARSFSLAKNPLFWQVAIAGIILDQLSKLWVSQAMDPVGTTWPLWSGVFHFTYVLNTGAAFSAFRGGAGWLKWLSLAVSVGLIIFAGKVPLRKLEQLGYGCILAGAVGNGIDRFLFGHVIDFLDFRLINFPIFNLADVSINIGIAALLWASFFPVSSRKVD”: the protein production result was “failed”.

On to “SQKSLKRGQELNNQYETKAKRLKIDPCLVVDSPFNHGFTAQEILKGAKNNGEISFLIRFWHLDQPQVVPSGIAYVEIPQMVLKFYENHCNFHDYLNNYIS”, for which the protein production entry is “failed”.

For “MKTRKIPLRKSVVSNEVIDKRDLLRIVKNKEGQVFIDPTGKANGRGAYIKLDNAEALEAKKKKVFNRSFSMEVEESFYDELIAYVDHKVKRRELGLE”, the protein production result is listed as “not failed”.

Consider “MTEKHLIWDLPLRIFHWGFAATILAAWYTAEQGADLVEIHMQLGFVALALIAFRILWGLIGPKHARFSQFVPSPKSLLSYLRSPNTAKSTAGHNPLGALMVILMILLISAQAISGLFINDDVFSSGPYYGRISNELEKVMKFLHHNTFDFMIAAIVLHIAAITFYWRVKKENLVLPMITGKKTTAQVKSSDAIPHSKIILGCIVAVCCVIFVYWLVVVNAPVIEEFYY”, for which the protein production result was “failed”.

Turning to “SAVPGGMFAPSLAVGAGFGLNMSQLLPFLPQSMVVLLGMVGFFAGMTRAPMTGFVIVMEMTDTSGMIIPLMATALIAASVSRLVSRRALYDGQVRLFLPQWRTQAGQ”, the protein production entry is on record as “failed”.

As to “MIRKWDTKDTAPLLALWLDSTIHAHPFISESYWRDSVAVVRDVYLPAASTWVWEQDGELKGFVSVLDSRFVGALFVAPGATRQGIGRALLDEVKQHYAWLSLEVYQKNESAVSFYHAQGFRIEDCAWQDDTQHPTWIMRWPA”, the protein production result was “not failed”.

With “MHTQEALFVRLALDAWNTQSSRTDKLIQSLSNEALAVETAPGRNSGTYLLGHLTAVHDAMLPLLELGDTLYPQLAPVFIQNPDKSGLEKPEINDLRLYWSLVQERLANQFNQLQPADWFNKHAAISREDFLKEPHRNKLSVLINRTNHMAYHLGQLAYLKK”, the protein production result is recorded as “not failed”.

For the sequence “MTYNVTALVGNAGNQDTSGVRVDFVDNGVRVGSYTIPLLRSGETTTVVFNWTPMTVGSHTLQLIIDPENHIQETNETNNRIIL”, the protein production result was “failed”.

On to “MKVALGGTFEPLHEGHKKLIDVAIKLGGRDITIGVTSDRMARARIRSVLPFAIRAENVKRYVMRKYGFEPEIVKITNPYGKTLDVDFEYLVVSPETYEMALKINQKREELGKRKITIVKVDWMMAEDGKPISSTRIKRGEIDRYGGII”, for which the protein production entry is listed as “not failed”.

For “MSNKLLLVFALIGIIVVFSCGLFLPIPIGYRVSMLTAGVIMSVVFSIIIPFDRKHIVRKKGNKIDFTKTKVYFRWNVFDTISVCLALYACICVQVLIFLVPMGFTIQNPYVQFFTNQSQLWVFIAIAYLISRISLTLKGIKEIKNHGADWD”, the protein production entry is “failed”.

Turning to “MLKERLKAFFSADSVFTLIFALFFLTSFKKPLTQVLLIVLMVFLFFRCYFQASLKETFAINHLKTMSFKWLTLAFLGVFLSIFPNMFNMHDSQTFRYNLFALNMSLTYACGALCLLFASCLRIKLNQKILFYSMAVANFINGLLSLVQKIYFNMPRAQGFSTVKEYVVLVSVSILGCYIYALYSHNQKEKLFFTLSVFVGFLVVILSATRSATIAFVITFLILSCFILYAKKSLKPLGYMVVVSLILSALYVGSNALEKKGAIEQSRVQNQSFEEDLKRYAKKDADSSIGWRLERWKEALTVLRLRPFFGMAASEKCQRLEEILSLSKSYRAKDLILCYERYDNQIIHILATRGIIGFLIWLFFLLVIVKIFWSGIKQNSLISFFILMTLAFYLIFGIGFDPFDFFITGSFFVGMIMMAVFLKKDKSAF”, the protein production result is “failed”.
